Article PMC12397386, “Structural basis of Fusobacterium nucleatum adhesin Fap2 interaction with receptors on cancer and immune cells” (Nature Communications, 2025)

Columns and labels:
[1] = target: hTIGIT-ECD-Fc (human TIGIT extracellular domain with C-terminal Fc tag, Acro Biosystems #TIT-H5254) (human) (UniProt Q495A1); experiment: SPR; Biacore 3000; hTIGIT-ECD-Fc immobilised on CM5 chip (3220 RU); Fap2-ECD injected at 52.5 to 368 nM; 25 mM HEPES-NaOH pH 7.5, 50 mM NaCl, 0.005% Tween-20; 25 °C; global 1:1 Langmuir fit
[2] = target: TIGIT (Homo sapiens) (UniProt Q495A1); conditions: cited from earlier work
[3] = target: fibronectin (Homo sapiens) (UniProt P02751); conditions: cited from earlier work
Chain of fibronectin (Homo sapiens) (P02751 32-2477): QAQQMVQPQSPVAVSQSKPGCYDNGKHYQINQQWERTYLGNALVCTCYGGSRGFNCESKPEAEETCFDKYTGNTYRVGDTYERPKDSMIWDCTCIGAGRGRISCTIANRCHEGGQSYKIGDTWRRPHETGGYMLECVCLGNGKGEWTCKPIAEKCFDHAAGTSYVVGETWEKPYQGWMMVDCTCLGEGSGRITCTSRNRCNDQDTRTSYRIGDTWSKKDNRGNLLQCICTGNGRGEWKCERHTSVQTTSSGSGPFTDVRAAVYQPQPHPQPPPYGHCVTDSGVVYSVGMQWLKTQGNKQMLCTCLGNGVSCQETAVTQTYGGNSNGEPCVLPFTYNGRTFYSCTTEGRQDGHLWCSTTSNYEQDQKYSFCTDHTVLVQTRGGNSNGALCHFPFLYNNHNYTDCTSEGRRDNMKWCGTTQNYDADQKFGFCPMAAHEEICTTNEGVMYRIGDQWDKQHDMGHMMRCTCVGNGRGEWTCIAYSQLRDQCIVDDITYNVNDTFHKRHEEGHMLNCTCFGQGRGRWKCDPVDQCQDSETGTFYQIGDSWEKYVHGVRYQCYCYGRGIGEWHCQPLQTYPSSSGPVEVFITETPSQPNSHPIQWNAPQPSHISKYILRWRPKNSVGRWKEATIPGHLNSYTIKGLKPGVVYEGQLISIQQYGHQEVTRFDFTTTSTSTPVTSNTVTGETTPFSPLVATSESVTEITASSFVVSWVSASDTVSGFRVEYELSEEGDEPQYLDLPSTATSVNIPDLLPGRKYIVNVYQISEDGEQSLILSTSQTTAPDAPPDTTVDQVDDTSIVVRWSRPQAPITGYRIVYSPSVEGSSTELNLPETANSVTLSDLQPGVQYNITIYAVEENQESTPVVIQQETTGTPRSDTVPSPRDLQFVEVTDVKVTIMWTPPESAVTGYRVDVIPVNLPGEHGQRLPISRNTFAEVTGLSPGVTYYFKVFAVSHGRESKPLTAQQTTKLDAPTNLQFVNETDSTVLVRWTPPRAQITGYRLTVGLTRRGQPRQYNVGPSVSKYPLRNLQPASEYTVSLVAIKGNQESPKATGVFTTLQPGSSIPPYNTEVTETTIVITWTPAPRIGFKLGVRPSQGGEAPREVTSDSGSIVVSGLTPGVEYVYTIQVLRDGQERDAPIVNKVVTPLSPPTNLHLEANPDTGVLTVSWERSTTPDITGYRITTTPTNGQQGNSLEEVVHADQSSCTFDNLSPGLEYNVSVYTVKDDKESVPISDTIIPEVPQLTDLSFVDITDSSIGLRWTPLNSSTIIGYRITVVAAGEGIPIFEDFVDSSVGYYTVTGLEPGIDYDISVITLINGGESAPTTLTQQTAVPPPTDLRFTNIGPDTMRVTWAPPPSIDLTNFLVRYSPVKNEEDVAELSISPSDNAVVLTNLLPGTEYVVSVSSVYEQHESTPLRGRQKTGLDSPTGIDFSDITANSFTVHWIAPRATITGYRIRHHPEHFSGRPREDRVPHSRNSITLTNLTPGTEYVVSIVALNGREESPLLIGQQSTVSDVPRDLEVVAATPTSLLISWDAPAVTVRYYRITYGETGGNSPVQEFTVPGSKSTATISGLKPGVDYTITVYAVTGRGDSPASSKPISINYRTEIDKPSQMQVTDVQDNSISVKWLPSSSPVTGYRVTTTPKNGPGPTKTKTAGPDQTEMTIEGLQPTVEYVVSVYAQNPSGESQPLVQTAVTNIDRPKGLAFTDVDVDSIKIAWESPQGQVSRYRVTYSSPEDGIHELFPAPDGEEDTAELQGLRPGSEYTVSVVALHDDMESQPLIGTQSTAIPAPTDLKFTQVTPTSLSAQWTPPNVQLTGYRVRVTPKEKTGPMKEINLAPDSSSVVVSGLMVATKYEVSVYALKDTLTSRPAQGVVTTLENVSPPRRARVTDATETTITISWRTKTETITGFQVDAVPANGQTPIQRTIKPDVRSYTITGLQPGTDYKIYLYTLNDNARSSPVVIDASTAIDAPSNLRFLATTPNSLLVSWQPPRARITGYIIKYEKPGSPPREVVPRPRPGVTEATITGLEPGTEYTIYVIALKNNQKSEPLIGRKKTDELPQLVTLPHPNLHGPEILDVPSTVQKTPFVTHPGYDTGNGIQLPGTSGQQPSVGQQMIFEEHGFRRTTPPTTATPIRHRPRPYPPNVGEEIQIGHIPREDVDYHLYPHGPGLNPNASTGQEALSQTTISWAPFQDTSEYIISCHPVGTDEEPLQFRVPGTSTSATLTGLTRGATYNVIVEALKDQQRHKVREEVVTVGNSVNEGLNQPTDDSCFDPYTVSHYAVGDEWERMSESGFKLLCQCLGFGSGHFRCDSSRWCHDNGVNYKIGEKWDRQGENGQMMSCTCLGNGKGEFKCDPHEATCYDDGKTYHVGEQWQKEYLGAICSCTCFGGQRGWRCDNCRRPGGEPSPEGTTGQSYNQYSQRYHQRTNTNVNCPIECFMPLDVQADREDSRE

[4] = target: T1, Fap2 extracellular domain (Fap2-ECD), residues 42-3271, purified after release from the AIDA autotransporter (Fusobacterium nucleatum subsp. …, UniProt A0ABV3Y820 42-3271); experiment: SPR; Biacore 3000; hTIGIT-ECD-Fc amine-coupled to a CM5 chip (3220 RU); Fap2-ECD injected at 52.5-368 nM; 25 mM HEPES-NaOH pH 7.5, 50 mM NaCl, 0.005% Tween-20; 25 °C; 1:1 Langmuir global fit; conditions: both partners purified
T1 construct: Linker GSA before and SAG after the His8 tag; what is left of the TEV site after cleavage follows it; Gene codon-optimised for E. coli; also called Fap2 WT; recombinant Fap2-ECD; not shown: His8, C-terminal, kept

With “Fap2 extracellular domain (Fap2-ECD, residues 42-3271) from Fusobacterium nucleatum subsp. nucleatum ATCC23726, wild type (domain or fragment)” the Ka [1] was 1.72e+06 M⁻¹, the Kd [1] was 583 nM and the koff [1] was 0.0308 s⁻¹.

In the case of Nectin-2 (from UniProt Q92692), the Kd [2] is given as 6 µM.

For lipoprotein P4 (from UniProt P26093), the Kd [3] is listed as 10 nM.

B1: human TIGIT extracellular domain with C-terminal Fc tag (Acro Biosystems #TIT-H5254) (Fc fusion, UniProt Q495A1 22-141, looked up)
chain: MMTGTIETTGNISAEKGGSIILQCHLSSTTAQVTQVNWEQQDQLLAICNADLGWHISPSFKDRVAPGPGLGLTLQSLTVNDTGEYFCIYHTYPDGTYTGRIFLEVLESSVAEHGARFQIP
notes: TIGIT, human, extracellular domain; The text calls it glycosylated hTIGIT-ECD in the SPR; also called hTIGIT-ECD-Fc; hTIGIT-Fc; source: bought: Acro Biosystems, #TIT-H5254; not shown: Fc, C-terminal, kept
B1 showed a Kd [4] of ~600 nM and a koff [4] of 0.03 ± 0.001 s⁻¹.
